This is an account of results in the DeepSol protein solubility set.

The nature of this series: soluble on expression in E. coli; label from the status in PepcDB or PDB records.
As for “SLTTSTALVLDINNANLDQQQAFAITAANRDEILQAASSIRLGDVMSVHDFGRSATDASYLDTMLEDVKVIDQKESGKQLNEIAFLSRQISDSVQPSDLQRVISRIPIIGFVISRLTFMQRRALNRFDSVKGQMDILADGISSISTGYLEQNVKLDAMYNDVLADIRAQGINIVASKLVIDSIEGELQTRQEEFKKNKTNTLLSIEINDIQYQLDTLKKRRKDMISMQQKSFDDLTMLRMMQQNNLALVDKFRSVEELTLPAAKRGHLIVDALEKQNAGVKLIEAIDDATNALALRQAELVKDNTIRIAKQSHRSVYDAKTLDRISTLMNEAIAEAHAIHKSNSDGHLALEKRAIEWQEERRQRLINGMGKNKLSNH”, the “soluble on expression in E. coli” value is “not soluble”. Turning to “MAHHHHHHMGKGAVHPNGSNFCRFLKYNIVDKMRTLVNTNLYDTPRWLEWSERAPPMEIYNISLKTKYNNNKYMDLVKFLLKKYPHLRFQDCYVEGNNNIKGYDYFRNDHIITQMATHQLYYMNRGYSKKEALEKTEKLFYDRRMDIEKQQKINMCLAIDEKVKPIYTNGYQYLYEKMADNEKAHLSIILKKLRNMKEKLQKKKKGANENEDKKNGVLT”, the “soluble on expression in E. coli” value is reported as “not soluble”. Consider “GSHMASSEDEKLSFEAVRNIHKLMDDDANGDVDVEESDEFLREDLNYHDPTVKHSTFHGEDKLISVEDLWKAWKSSEVYNWTVDEVVQWLITYVELPQYEETFRKLQLSGHAMPRLAVTNTTMTGTVLKMTDRSHRQKLQLKALDTVLFG”, for which the “soluble on expression in E. coli” value is listed as “soluble”. With “MMKPIIREAKPQDKPFIEEIAHLTWDGEDYLARVFDEWIKDGNFYVLELNGKVIGTVKLTLLPNRVSWMEGLRVHPNYHGRGFGKMLHNFIVEKGRMMASEGIIDALEFSPYFLNKKIIAMAEKNGFWVKARFFVASVRVGDFKPEEPIRIEPKLEDLTLGIIPVGWRFIKRSEEALEWIRKNAEVYEYNGLKFIGPKKETIFTPLEPGPAVLKALLPAMAWVAREKDKEEFNLMLSSSIKPVLSVFRRIGVYIWDDAKEPNVLVFRKKLKDKKGLIPFVNKWNYNKEY”, the “soluble on expression in E. coli” value is recorded as “not soluble”. For “MEIQDYTDSEFKHALARNLRSLTRGKKSSKQPIAILLGGQSGAGKTTIHRIKQKEFQGNIVIIDGDSFRSQHPHYLELQQEYGKDSVEYTKDFAGKMVESLVTKLSSLGYNLLIEGTLRTVDVPKKTAQLLKNKGYEVQLALIATKPELSYLSTLIRYEELYIINPNQARATPKEHHDFIVNHLVDNTRKLEELAIFERIQIYQRDRSCVYDSKENTTSAADVLQELFFGEWSQVEKEMLQVGEKRLNELLEK” the value was “soluble”. For “MPVAHVALPVPLPRTFDYLLPEGMAVKAGCRVRVPFGKQQERIGVVVSVSDVSELPLNELKAVVEVLDSEPVFTHSVWRLLLWAADYYHHPIGDVLFHALPILLRQGRPAANAPMWYWFATEQGHAVDLNSLKRSPKQQQALAALRQGKIWRDQVATLEFNDAALQALRKKGLCDLASETPEFSDWRTNYAVSGERLRLNTEQATAVGAIHSAADTFSAWLLAGVTGSGKTEVYLSVLENVLAQGKQALVMVPEIGLTPQTIARFRERFNAPVEVLHSGLNDSERLSAWLKAKNGEAAIVIGTRSALFTPFKNLGVIVIDEEHDSSYKQQEGWRYHARDLAVYRAHSEQIPIILGSATPALETLCNVQQKKYRLLRLTRRAGNARPAIQHVLDLKGQKVQAGLAPALITRMRQHLQADNQVILFLNRRGFAPALLCHDCGWIAECPRCDHYYTLHQAQQHLRCHHCDSQRPVPRQCPSCGSTHLVPVGLGTEQLEQTLAPLFPGVPISRIDRDTTSRKGALEQQLAEVHRGGARILIGTQMLAKGHHFPDVTLVALLDVDGALFSADFRSAERFAQLYTQVAGRAGRAGKQGEVVLQTHHPEHPLLQTLLYKGYDAFAEQALAERRMMQLPPWTSHVIVRAEDHNNQHAPLFLQQLRNLILSSPLADDKLWVLGPVPALAPKRGGRWRWQILLQHPSRVRLQHIINGTLALINTIPDSRKVKWVLDVDPIEG” the value was “not soluble”; for “SPSETLWEIAKAEVEKRGINGSEGDGAEIAEKFVFFIGSKNGGKTTIILRCLDRDEPPKPTLALEYTYGRRAKGHNTPKDIAHFWELGGGTSLLDLISIPITGDTLRTFSLVLVLDLSKPNDLWPTMENLLQATKSHVDKVIMKLGKTNAKAVSEMRQKIWNNMPKDHPQDHELIDPFPVPLVIIGSKYDVFQDFESEKRKVICKTLRFVAHYYGASLMFTSKSEALLLKIRGVINQLAFGIDKSKSICVDQNKPLFITAGLDSFGQIGSPPVPENDIGKLHAHSPMELWKKVYEKLFPPKSINTLKDIKDPARDPQYAENEVDEMRIQKDLELEQYKRSSSKSWKQIELDS”, “soluble”. Then “MSLEAKQTKKSLPLRSEIPVEETWRLEDIFPTDEAWEQEFQEVKKMIPKLAEYQGRLGESADVLYEALQYQDEVSMRLGKLYTYAHMRYDQDTTNAFYQGLNDRATSLYSEASSAMAFIVPEILAIDEVKLRSFLEEKQELKLYEHALDEINRQRPHVLSAEEEALLAQAAEVMQSSSSTFSMLNNADLTFPTIIDENGEEVEVTHGRFIRFLESTDRRVRRDAFKAVYDTYEKYKNTFASTLAGTVKKDNFFARVRRYKSAREAALSSNNIPESVYDNLIETVHEHLPLLHRYVRLRKKVLGLDELHMYDLYTPLVQDVKMEVTYEEAKEYMLKALAPLGEEYISIVKEGLENRWVDVRENKGKRSGAYSSGAYGTHPYILLNWQDNVNNLFTLVHEFGHSVHSYYTRKTQPYPYANYSIFVAEVASTCNEALLNDYLLKTMDEEKKRLYLLNHYLEGFRGTVFRQTMFAEFEHMIHIKAQEGEALTADSLTSLYYELNKKYFGDDIVVDQEIGLEWARIPHFYYNYYVYQYATGFSAATALSKQILEEGEPAVKRYIEFLKAGSSDYPIEVLKKAGVDMTSAEPIRQACQVFAEKLEEMENLLSEGHHHHHH”, with “soluble”; and “MEVKKVLVSAFLLTTCLMSGQAQRRNEIQVPDLDGYTTLKCDFHMHSVFSDGLVWPTVRVDEAYRDGLDAISLTEHIEYRPHKQDVVSDHNRSFDLCREQAEKLGILLIKGSEITRAMAPGHFNAIFLSDSNPLEQKDYKDAFREAKKQGAFMFWNHPGWDSQQPDTTKWWPEHTALYQEGCMHGIEVANGHLYMPEAIQWCLDKNLTMIGTSDIHQPIQTDYDFEKGEHRTMTFVFAKERSLQGIREALDNRRTAAYFHELLIGREDLLRPFFEKCVKIEEVSRNEQGVTLSITNVTDLVLKLKKTAHDTLLVYFRDMTLKPHTRYTVRIGFKQGIKGGDVNFEVTNFIVAPDKGLKYTISL”, with “not soluble”. On to “MGSDKIHHHHHHMHEDHFDKFVQKNLDRNIPIVTTEEAGKSLKELGFMKRHPLKTWDTLIVERGNTLLRVTAMPGRHGPPIVAELLPEVMGSLLDFGIKNSPRSYRMYISGDTMVFDDIKEIPRRYPDVDLALLHLGGTRLLGLVTVTMDAKEGVKMMQLIVPRKAIPIHYNDYDVFKSPLSDFKKEMERAGLQDKIIYLEHGDTYEFDLEEK”, for which the “soluble on expression in E. coli” value is “not soluble”. As to “MGSDKIHHHHHHMTSREEFLEKLAQAGTLNLIFQLTDQCALSCRYCFAKGSHPSGGLRIADDLLDAAIRSAFDTRHHQVSFEWTGGEPFFAGIDFYRKVDRLQKKYATKPYANTIQTSGYVHDRELIAWLAGHGFRISSTIDGPPELHDFQRPVNGGGPSLGAVLATRETIIEHQGHCGCICTVTRNSLGKEGAILDYYRSLGIEAFHSNPYYYFSKNLVGDESLALDADGYAAYFIAQFNAWFEGGRKLPMPGTLNYILRSLTAGAGLKQSVCTFGGRCLTNFLAITPDGDAWLCPKFAGFDEMRLGNVGKMAITDILSDANPAMARLIDERLDAIHTCEADECRFQYLCNAGCPYYSFIASGGRNIAVKDSLCTGKQLLFEYLESVVELIDPARLPEPSPLEHA”, the “soluble on expression in E. coli” value is “not soluble”. For “ELQKKIKAADDIFPNQKKNPDKKDNPNVLEVLGEYGGDGFFPTLGNNGLNIPDQVFQSFNNFQIENYKISDFKVDIASERDIVQHDKFRFSYVVN”, the “soluble on expression in E. coli” value was “soluble”. Regarding “MAIERIQLHTHGDDRGLLISLEQQRNVPFEIRRVYYIFGTRQGVHRGQHAHRQLNQLAVALHGSVTLLLDEGQGQGPEEVVLDDPSQGVLLGRMVWRDLHQFSEDCVLMVLADQYYDPGDYILDYDEFLTEARGVSRLEALEHHHHHH”, the “soluble on expression in E. coli” value is given as “soluble”. For “MHMNAEEIGMALLNGRKELGLRQGELADLAGVSERFIRDVEKGKTTVRLDKVIDVLRVLGLELSVGIHDPLKVNQ” the value was “not soluble”.
